The assay addresses T1, ovalbumin (UniProt P01012 2-386).
T1 sequence: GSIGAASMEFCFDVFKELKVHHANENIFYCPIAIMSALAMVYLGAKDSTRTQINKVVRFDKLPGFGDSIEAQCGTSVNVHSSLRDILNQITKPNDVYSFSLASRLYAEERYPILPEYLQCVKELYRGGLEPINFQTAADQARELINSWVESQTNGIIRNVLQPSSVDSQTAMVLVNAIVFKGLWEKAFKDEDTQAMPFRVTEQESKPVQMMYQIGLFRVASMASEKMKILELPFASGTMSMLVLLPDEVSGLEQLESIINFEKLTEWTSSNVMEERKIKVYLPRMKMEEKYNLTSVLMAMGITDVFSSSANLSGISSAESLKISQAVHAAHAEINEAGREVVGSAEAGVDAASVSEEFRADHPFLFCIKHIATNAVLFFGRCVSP
Description: phage ELISA, ovalbumin coated 100 ng per well, anti-HA or anti-M13 detection. On the technique in general: ELISA stands for enzyme-linked immunosorbent assay.

B1: 2G12 domain exchanged Fab fragment displayed on phage (Fab, V domains shown)
VH: EVQLVESGGGLVKAGGSLILSCGVSNFRISAHTMNWVRRVPGGGLEWVASISTSSTYRDYADAVKGRFTVSRDDLEDFVYLQMHKMRVEDTAIYYCARKGSDRLSDNDPFDAWGPGTVVTVSP
VL: GVVMTQSPSTLSASVGDTITITCRASQSIETWLAWYQQKPGKAPKLLIYKASTLKTGVPSRFSGSGSGTEFTLTISGLQFDDFATYHCQHYAGYSATFGQGTRVEIKR
notes: also called 2G12 Fab; phage from 2G12 pCAL G13 vector
Take B1: the binding result is on record as “no binding”.

(Values after patent US20100093563A1 (published 2010).)
